Results on two substances are retold here after publication PMC12071194.

In one test the target is mCherry-NIX (WT) (UniProt O60238). The test can be described thus: immunoblot for dimers; immunoblot analysis of WT or OMP25C hybrids of BNIP3 and NIX expressed in B/N DKO cells. (A western blot detects proteins with antibodies after separation by electrophoresis.)
The target in a further test is mCherry-BNIP3 (WT). The test is described as above.

mCherry-NIX (WT), O60238 1-219 (natural protein; other documents disagree on this pair), sequence (O60238 whole entry): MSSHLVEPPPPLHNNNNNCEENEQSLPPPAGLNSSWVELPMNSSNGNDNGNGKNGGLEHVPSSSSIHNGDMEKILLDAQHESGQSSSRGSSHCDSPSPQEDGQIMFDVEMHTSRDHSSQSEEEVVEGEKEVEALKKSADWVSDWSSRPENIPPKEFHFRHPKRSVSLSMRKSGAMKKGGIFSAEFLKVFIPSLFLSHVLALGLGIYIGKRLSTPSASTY
mCherry-BNIP3 (WT) (natural protein), sequence (Q12983 whole entry): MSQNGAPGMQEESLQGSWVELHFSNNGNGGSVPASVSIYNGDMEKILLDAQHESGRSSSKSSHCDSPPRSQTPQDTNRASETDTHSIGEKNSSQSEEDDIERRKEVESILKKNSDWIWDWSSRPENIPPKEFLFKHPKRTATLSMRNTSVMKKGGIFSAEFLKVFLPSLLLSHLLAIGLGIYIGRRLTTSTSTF

One may read the stoichiometry N as the number of molecules, sites or subunits per partner or assembly. In the case of “mCherry-NIX (WT), O60238 1-219 (natural protein; other documents disagree on this pair)”, in the test with mCherry-NIX (WT), the stoichiometry N came out at 2.

For the substance mCherry-BNIP3 (WT) (natural protein), in the test with mCherry-BNIP3 (WT), the stoichiometry N was found to be 2.
